In US20170210805A1 (published 2017):

Tests used:
[1] = biological target: water-soluble hFcRn (human) (UniProt P55899); experiment: SPR (Proteon XPR36), shFcRn immobilized on GLC chip, hIgG1 as analyte, pH 6.0
[2] = biological target: T1, human FcRn (co-crystal with HL161BK Fab) (human, UniProt P55899 24-297; P61769 21-119); experiment: X-ray co-crystal structure at 2.4 Å
T1 construct: also called hFcRn
T1 sequence (P55899 24-297 limits assumed, chain 1 of 2): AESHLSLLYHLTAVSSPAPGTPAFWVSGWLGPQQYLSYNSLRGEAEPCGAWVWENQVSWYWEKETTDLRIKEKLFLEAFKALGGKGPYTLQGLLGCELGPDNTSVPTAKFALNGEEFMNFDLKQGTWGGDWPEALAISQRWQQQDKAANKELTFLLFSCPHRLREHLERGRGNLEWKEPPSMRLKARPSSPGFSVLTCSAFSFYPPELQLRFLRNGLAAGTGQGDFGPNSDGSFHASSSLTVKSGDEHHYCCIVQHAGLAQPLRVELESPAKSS
T1 sequence (P61769 21-119 limits assumed, chain 2 of 2): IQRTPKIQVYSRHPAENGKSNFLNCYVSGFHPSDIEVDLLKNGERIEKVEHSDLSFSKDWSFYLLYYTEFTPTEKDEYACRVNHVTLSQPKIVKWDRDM
Description: There are two copies each of hFcRn and HL161BK Fab per asymmetric unit. […] A data set was collected at ESRF beamline ID30A-1.

Chain of water-soluble hFcRn (human) (P55899 24-297 limits assumed, chain 1 of 2): as the sequence (P55899 24-297 limits assumed, chain 1 of 2) above
Chain of water-soluble hFcRn (human) (b2m, as listed by the source limits assumed, chain 2 of 2): as the sequence (P61769 21-119 limits assumed, chain 2 of 2) above

## hIgG1 (antibody)
[1]
  Kd: 1.4 nM
  koff: 0.00046 s⁻¹
  kon: 320000 M⁻¹ s⁻¹

B1: HL161BK antibody Fab fragment (Fab, V domains shown)
VH: QLLLQESGPGLVKPSETLSLTCTVSGGSLSSSFSYWVWIRQPPGKGLEWIGTIYYSGNTYYNPSLKSRLTISVDTSKNHFSLKLSSVTAADTAVYYCARRAGILTGYLDSWGQGTLVTVSS
VL: SYVLTQSPSVSVAPGQTARITCGGNNIGSKSVHWYQQKPGQAPVLVVYDDSDRPSGIPERFSASNSGNTATLTISRVEAGDEADYYCQVWDSSSDHVVFGGGTKLTVLGQPKAAPSVTL
notes: HL161BK is HL161B with asparagine (N) at position 83 of the heavy-chain variable framework replaced by lysine (K); It was used as a Fab in the crystal; also called HL161BK Fab
[2]
  binding result: binds
